Assay results: patent publication US20200164020A1

Target: IFNβ in spent medium of HEp-2 cells transfected with siPUM1 (UniProt P01574)
Assay: cell-based or functional assay

UniProt P01574, sequence (P01574 22-187 limits assumed): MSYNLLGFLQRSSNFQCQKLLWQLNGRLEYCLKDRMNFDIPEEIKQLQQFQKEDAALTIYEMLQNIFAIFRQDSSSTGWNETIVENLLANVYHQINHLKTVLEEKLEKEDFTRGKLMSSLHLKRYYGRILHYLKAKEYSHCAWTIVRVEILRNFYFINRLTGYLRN

## anti-IFNβ antibody (R&D Systems, MAB814-100)
  accumulation of HSV-1 viral proteins (immunoblot) in HEp-2 cells exposed to siPUM1 spent medium pre-incubated with antibody, IFN neutralization assay: 2 to 4 fold
